Values joined by “and” are separate entries in the source; they are usually repeats but may differ in a detail not shown here. Equal entries are not always repeated.
T1: human PTPRD ECD-His6 (human, UniProt P23468 21-1265)
T1 construct: human PTPRD (receptor-type protein tyrosine phosphatase delta) extracellular domain; No catalogue number printed; also called PTPRδ; source: bought: ACROBiosystems
T1 sequence (looked up): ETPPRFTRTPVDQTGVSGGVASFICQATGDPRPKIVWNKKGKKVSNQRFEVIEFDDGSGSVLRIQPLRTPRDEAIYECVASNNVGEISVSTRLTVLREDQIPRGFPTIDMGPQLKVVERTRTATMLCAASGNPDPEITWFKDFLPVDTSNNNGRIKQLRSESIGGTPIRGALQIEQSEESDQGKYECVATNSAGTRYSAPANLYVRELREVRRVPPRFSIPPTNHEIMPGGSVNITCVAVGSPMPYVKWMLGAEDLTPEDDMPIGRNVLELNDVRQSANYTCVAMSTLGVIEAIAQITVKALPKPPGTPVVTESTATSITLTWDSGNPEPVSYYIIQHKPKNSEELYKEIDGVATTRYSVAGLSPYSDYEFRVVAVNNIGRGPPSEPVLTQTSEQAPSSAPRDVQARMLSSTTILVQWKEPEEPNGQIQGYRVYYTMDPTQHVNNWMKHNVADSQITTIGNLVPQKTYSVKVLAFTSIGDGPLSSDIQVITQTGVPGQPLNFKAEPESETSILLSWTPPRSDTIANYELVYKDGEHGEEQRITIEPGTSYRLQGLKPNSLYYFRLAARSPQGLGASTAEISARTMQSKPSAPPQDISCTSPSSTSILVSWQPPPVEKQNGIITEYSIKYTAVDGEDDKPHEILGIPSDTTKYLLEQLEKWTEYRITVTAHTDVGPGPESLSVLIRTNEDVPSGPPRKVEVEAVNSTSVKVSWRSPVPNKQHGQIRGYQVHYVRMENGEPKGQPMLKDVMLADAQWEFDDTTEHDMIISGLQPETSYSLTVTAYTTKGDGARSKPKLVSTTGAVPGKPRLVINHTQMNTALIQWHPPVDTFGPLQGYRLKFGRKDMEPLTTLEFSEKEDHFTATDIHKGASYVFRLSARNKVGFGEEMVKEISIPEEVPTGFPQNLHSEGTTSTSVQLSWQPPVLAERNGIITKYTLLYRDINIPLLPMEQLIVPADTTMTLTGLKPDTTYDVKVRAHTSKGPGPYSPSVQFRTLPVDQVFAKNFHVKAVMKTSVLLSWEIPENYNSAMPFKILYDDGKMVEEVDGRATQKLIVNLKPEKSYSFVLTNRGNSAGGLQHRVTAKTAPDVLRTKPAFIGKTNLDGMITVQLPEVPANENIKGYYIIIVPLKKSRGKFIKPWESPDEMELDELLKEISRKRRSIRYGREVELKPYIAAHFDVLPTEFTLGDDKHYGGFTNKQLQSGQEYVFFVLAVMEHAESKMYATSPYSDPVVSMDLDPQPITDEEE


Key:
[1] = target: T1, human PTPRD ECD-His6; test: quartz crystal microbalance; SLITRK1 ECD-Fc (about 200 fmol) immobilised on the 27 MHz gold resonator through anti-human IgG Fc-HRP; ECD-His6 proteins added in solution; 50 mM Tris-HCl pH 7.6, 15 mM NaCl, 140 mM KCl, 0.5 mM MgCl2, 2 mM CaCl2; 25 ± 1 °C; kon and koff from 1/τ against concentration, KD = koff/kon; each sheet row is one experiment; conditions: both partners purified
[2] = target: human Neurofascin ECD-His6 (human, UniProt O94856 25-1217, Mammalian-expressed glycoprotein is likely. C-terminal His6 tag omitted. The limits are not printed. The paper names catalogue 8208-NF-050 as Neurofascin 155, so the chain runs from after the signal p); test: as above; conditions: both partners purified

Binder | Kd [1] | koff [1] | kon [1] | Kd [2] | koff [2] | kon [2]
SLITRK1 ECD-immunoglobulin Fc domain-fusion protein (SLITRK1-WT-Fc) (Fc fusion, human, UniProt Q96PX8 18-616, looked up, signal peptide in the construct; human SLITRK1 extracellular domain, amino acid number 1-616 in NP_443142; Held on the resonator through anti-human IgG Fc; also called SLITRK1 ECD-Fc) NVTGDVCKEKICSCNEIEGDLHVDCEKKGFTSLQRFTAPTSQFYHLFLHGNSLTRLFPNEFANFYNAVSLHMENNGLHEIVPGAFLGLQLVKRLHINNNKIKSFRKQTFLGLDDLEYLQADFNLLRDIDPGAFQDLNKLEVLILNDNLISTLPANVFQYVPITHLDLRGNRLKTLPYEEVLEQIPGIAEILLEDNPWDCTCDLLSLKEWLENIPKNALIGRVVCEAPTRLQGKDLNETTEQDLCPLKNRVDSSLPAPPAQEETFAPGPLPTPFKTNGQEDHATPGSAPNGGTKIPGNWQIKIRPTAAIATGSSRNKPLANSLPCPGGCSCDHIPGSGLKMNCNNRNVSSLADLKPKLSNVQELFLRDNKIHSIRKSHFVDYKNLILLDLGNNNIATVENNTFKNLLDLRWLYMDSNYLDTLSREKFAGLQNLEYLNVEYNAIQLILPGTFNAMPKLRILILNNNLLRSLPVDVFAGVSLSKLSLHNNYFMYLPVAGVLDQLTSIIQIDLHGNPWECSCTIVPFKQWAERLGSEVLMSDLKCETPVNFFRKDFMLLSNDEICPQLYARISPTLTSHSKNSTGLAETGTHSNSYLDTSRVS | 110 nM and 202 nM and 144 nM | 0.00348 s⁻¹ and 0.00358 s⁻¹ and 0.00347 s⁻¹ | 31600 M⁻¹ s⁻¹ and 17700 M⁻¹ s⁻¹ and 24100 M⁻¹ s⁻¹ | 18.7 nM and 15.5 nM and 15.7 nM | 0.00278 s⁻¹ and 0.00247 s⁻¹ and 0.00243 s⁻¹ | 154000 M⁻¹ s⁻¹ and 149000 M⁻¹ s⁻¹ and 159000 M⁻¹ s⁻¹
SLITRK1-A444S-Fc (Fc fusion, human, UniProt Q96PX8 18-616, looked up, signal peptide in the construct; human SLITRK1 extracellular domain, amino acid number 1-616 in NP_443142, with the patient-derived mutation A444S; A444S was found in patients with BPD, so it occurs in nature; also called SLITRK1 ECD-Fc A444S) NVTGDVCKEKICSCNEIEGDLHVDCEKKGFTSLQRFTAPTSQFYHLFLHGNSLTRLFPNEFANFYNAVSLHMENNGLHEIVPGAFLGLQLVKRLHINNNKIKSFRKQTFLGLDDLEYLQADFNLLRDIDPGAFQDLNKLEVLILNDNLISTLPANVFQYVPITHLDLRGNRLKTLPYEEVLEQIPGIAEILLEDNPWDCTCDLLSLKEWLENIPKNALIGRVVCEAPTRLQGKDLNETTEQDLCPLKNRVDSSLPAPPAQEETFAPGPLPTPFKTNGQEDHATPGSAPNGGTKIPGNWQIKIRPTAAIATGSSRNKPLANSLPCPGGCSCDHIPGSGLKMNCNNRNVSSLADLKPKLSNVQELFLRDNKIHSIRKSHFVDYKNLILLDLGNNNIATVENNTFKNLLDLRWLYMDSNYLDTLSREKFSGLQNLEYLNVEYNAIQLILPGTFNAMPKLRILILNNNLLRSLPVDVFAGVSLSKLSLHNNYFMYLPVAGVLDQLTSIIQIDLHGNPWECSCTIVPFKQWAERLGSEVLMSDLKCETPVNFFRKDFMLLSNDEICPQLYARISPTLTSHSKNSTGLAETGTHSNSYLDTSRVS | – | – | – | 13.3 nM and 16.3 nM and 13.1 nM | 0.00529 s⁻¹ and 0.00613 s⁻¹ and 0.00588 s⁻¹ | 398000 M⁻¹ s⁻¹ and 376000 M⁻¹ s⁻¹ and 451000 M⁻¹ s⁻¹
SLITRK1-S330A-Fc (Fc fusion, human, UniProt Q96PX8 18-616, looked up, signal peptide in the construct; human SLITRK1 extracellular domain, amino acid number 1-616 in NP_443142, with the patient-derived mutation S330A; S330A was found in patients (SCZ/BPD) and controls, so it occurs in nature; also called SLITRK1 ECD-Fc S330A) NVTGDVCKEKICSCNEIEGDLHVDCEKKGFTSLQRFTAPTSQFYHLFLHGNSLTRLFPNEFANFYNAVSLHMENNGLHEIVPGAFLGLQLVKRLHINNNKIKSFRKQTFLGLDDLEYLQADFNLLRDIDPGAFQDLNKLEVLILNDNLISTLPANVFQYVPITHLDLRGNRLKTLPYEEVLEQIPGIAEILLEDNPWDCTCDLLSLKEWLENIPKNALIGRVVCEAPTRLQGKDLNETTEQDLCPLKNRVDSSLPAPPAQEETFAPGPLPTPFKTNGQEDHATPGSAPNGGTKIPGNWQIKIRPTAAIATGSARNKPLANSLPCPGGCSCDHIPGSGLKMNCNNRNVSSLADLKPKLSNVQELFLRDNKIHSIRKSHFVDYKNLILLDLGNNNIATVENNTFKNLLDLRWLYMDSNYLDTLSREKFAGLQNLEYLNVEYNAIQLILPGTFNAMPKLRILILNNNLLRSLPVDVFAGVSLSKLSLHNNYFMYLPVAGVLDQLTSIIQIDLHGNPWECSCTIVPFKQWAERLGSEVLMSDLKCETPVNFFRKDFMLLSNDEICPQLYARISPTLTSHSKNSTGLAETGTHSNSYLDTSRVS | – | – | – | 44.8 nM and 64.2 nM and 68.8 nM | 0.00635 s⁻¹ and 0.00732 s⁻¹ and 0.00627 s⁻¹ | 142000 M⁻¹ s⁻¹ and 91200 M⁻¹ s⁻¹ and 114000 M⁻¹ s⁻¹

Reference: paper PMC9463131, “SLITRK1-mediated noradrenergic projection suppression in the neonatal prefrontal cortex” (Communications Biology, 2022)
